Results reported in patent publication US20080058263A1 (published 2008).

T1: VEGFR-3-Fc (UniProt P35916 25-328)
T1 construct: domain: first three Ig domains; conditioned supernatant of 293T cells; also called VEGFR-3-Fc fusion protein; not shown: Fc fragment of the pIg vector
T1 sequence (looked up): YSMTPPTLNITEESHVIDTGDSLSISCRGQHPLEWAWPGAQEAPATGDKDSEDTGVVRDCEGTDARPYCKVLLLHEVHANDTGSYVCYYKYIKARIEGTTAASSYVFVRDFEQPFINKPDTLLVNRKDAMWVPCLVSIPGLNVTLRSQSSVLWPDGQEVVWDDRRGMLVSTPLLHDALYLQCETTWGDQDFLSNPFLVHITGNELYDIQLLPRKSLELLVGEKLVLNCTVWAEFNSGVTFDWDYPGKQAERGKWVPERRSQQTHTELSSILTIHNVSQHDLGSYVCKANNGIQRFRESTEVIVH


Experiments:
Experiment in all cases: receptor-Fc IP
[1] = target: T2, VEGFR-2-Fc (UniProt P35968 20-322)
T2 construct: domain: first 3 Ig domains; conditioned supernatant of 293T cells; also called VEGFR-2-Fc fusion protein; not shown: Fc fragment of the pIg vector
How it was run: (§1)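 fusion protein at 400 ng/ml in an IP mix (PBS, 1.5% BSA, 0.06% Tween 20, 3 μg/ml heparin) was combined with sample supernatant at a 1:2 ratio. Bound ligand captured by immunoprecipitation with pentahistidine antibody.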

[2] = target: T1, VEGFR-3-Fc
How it was run: as §1

[3] = target: T3, VEGFR-1-Fc (UniProt P17948 27-338)
T3 construct: domain: first three Ig domains; expressed in Drosophila S2 cells, purified on Protein A sepharose; also called VEGFR-1-Fc fusion protein; not shown: Fc fragment from the Signal-pIgPlus vector
How it was run: as §1

T3 sequence (P17948 27-338): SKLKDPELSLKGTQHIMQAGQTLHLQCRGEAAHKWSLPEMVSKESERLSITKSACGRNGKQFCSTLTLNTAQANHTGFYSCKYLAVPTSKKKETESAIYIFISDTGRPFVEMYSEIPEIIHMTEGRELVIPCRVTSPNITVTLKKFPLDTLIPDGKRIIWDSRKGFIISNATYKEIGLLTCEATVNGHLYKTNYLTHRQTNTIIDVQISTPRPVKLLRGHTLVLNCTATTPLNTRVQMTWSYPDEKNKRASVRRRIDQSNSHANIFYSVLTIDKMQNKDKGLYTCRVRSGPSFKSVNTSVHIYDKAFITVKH
T2 sequence (P35968 20-322): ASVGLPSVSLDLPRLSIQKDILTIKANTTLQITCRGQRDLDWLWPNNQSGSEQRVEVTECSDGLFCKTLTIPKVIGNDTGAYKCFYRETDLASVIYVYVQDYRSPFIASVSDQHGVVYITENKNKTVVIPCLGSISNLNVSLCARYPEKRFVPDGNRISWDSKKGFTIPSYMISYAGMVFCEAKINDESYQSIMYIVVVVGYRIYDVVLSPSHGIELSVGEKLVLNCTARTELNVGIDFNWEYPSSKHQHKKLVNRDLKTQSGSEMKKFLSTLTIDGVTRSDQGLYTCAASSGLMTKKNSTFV

Row | binding result [1] | binding result [2] | binding result [3] | Binder
1 | no binding | no binding | no binding | 21-4 (ligand) AHYNTEILKSIDNEWRKTQCMPREVCIDVGKEYPDEIEYIFKPSCVPLMRCGGCCNSEGLQCMNTSTSYLSKTLFEIKPHQGQHIGEMSFLQHNKCECRPKKD
2 | no binding | no binding | no binding | 44-13 (ligand) AHYNTEILKFMDVYQRSYCHPREVCIDVGKEFGVATNTFFKPSCVPLMRCGGCCNDEGLECVPTEESNITMQIMRITVPLSQGPKPVTISFANHTSCRCMSKLD
3 | no binding | no binding | no binding | 44-15 (ligand) AHYNTEILKFMDVYQRSYCHPREVCIDVGKEFGVATNTFFKPSCVPLMRCGGCCNSEGLQCVPTEESNITMQIMRITVPLSQGPKPVTISFANHTSCRCMSKLD
4 | no binding | no binding | no binding | 42-10 (ligand) AHYNTEILKFMDVYQRSYCHPREVCIDVGKEFGVATNTFFKPPCVSVYRCGGCCNDEGLECMNTSTSYLSKTLFEITVPLSQGPKPVTISFLQHNKCECRPKKD
5 | no binding | no binding | no binding | 44-12 (ligand) AHYNTEILKFMDVYQRSYCHPREVCIDVGKEFGVATNTFFKPSCVPLMRCGGCCNSEGLQCMNTSTSYLSKTLFEITVPLSQGPKPVTISFLQHNKCECRPKKD
6 | no binding | no binding | no binding | 44-10 (ligand) AHYNTEILKFMDVYQRSYCHPREVCIDVGKEFGVATNTFFKPSCVPLMRCGGCCNDEGLECMNTSTSYLSKTLFEITVPLSQGPKPVTISFLQHNKCECRPKKD
7 | no binding | no binding | no binding | 42-12 (ligand) AHYNTEILKFMDVYQRSYCHPREVCIDVGKEFGVATNTFFKPPCVSVYRCGGCCNSEGLQCMNTSTSYLSKTLFEITVPLSQGPKPVTISFLQHNKCECRPKKD
8 | no binding | no binding | no binding | 42-1 (ligand) AHYNTEILKFMDVYQRSYCHPREVCIDVGKEFGVATNTFFKPPCVSVYRCGGCCNDEGLECVPTEESNITMQIMRIKPHQGQHIGEMSFLQHNKCECRPKKD
9 | no binding | no binding | no binding | 44-2 (ligand) AHYNTEILKFMDVYQRSYCHPREVCIDVGKEFGVATNTFFKPSCVPLMRCGGCCNDEGLECMNTSTSYLSKTLFEIKPHQGQHIGEMSFLQHNKCECRPKKD
10 | no binding | no binding | no binding | 44-4 (ligand) AHYNTEILKFMDVYQRSYCHPREVCIDVGKEFGVATNTFFKPSCVPLMRCGGCCNSEGLQCMNTSTSYLSKTLFEIKPHQGQHIGEMSFLQHNKCECRPKKD
11 | no binding | no binding | no binding | 42-9 (ligand) AHYNTEILKFMDVYQRSYCHPREVCIDVGKEFGVATNTFFKPPCVSVYRCGGCCNDEGLECVPTEESNITMQIMRITVPLSQGPKPVTISFLQHNKCECRPKKD
12 | no binding | no binding | no binding | 42-11 (ligand) AHYNTEILKFMDVYQRSYCHPREVCIDVGKEFGVATNTFFKPPCVSVYRCGGCCNSEGLQCVPTEESNITMQIMRITVPLSQGPKPVTISFLQHNKCECRPKKD
13 | no binding | no binding | no binding | 43-9 (ligand) AHYNTEILKFMDVYQRSYCHPREVCIDVGKEYPDEIEYIFKPPCVSVYRCGGCCNDEGLECVPTEESNITMQIMRITVPLSQGPKPVTISFLQHNKCECRPKKD
14 | no binding | no binding | no binding | 42-15 (ligand) AHYNTEILKFMDVYQRSYCHPREVCIDVGKEFGVATNTFFKPPCVSVYRCGGCCNSEGLQCVPTEESNITMQIMRITVPLSQGPKPVTISFANHTSCRCMSKLD
15 | no binding | no binding | no binding | 42-13 (ligand) AHYNTEILKFMDVYQRSYCHPREVCIDVGKEFGVATNTFFKPPCVSVYRCGGCCNDEGLECVPTEESNITMQIMRITVPLSQGPKPVTISFANHTSCRCMSKLD
16 | no binding | no binding | no binding | 44-11 (ligand) AHYNTEILKFMDVYQRSYCHPREVCIDVGKEFGVATNTFFKPSCVPLMRCGGCCNSEGLQCVPTEESNITMQIMRITVPLSQGPKPVTISFLQHNKCECRPKKD
17 | no binding | no binding | no binding | 43-11 (ligand) AHYNTEILKFMDVYQRSYCHPREVCIDVGKEYPDEIEYIFKPPCVSVYRCGGCCNSEGLQCVPTEESNITMQIMRITVPLSQGPKPVTISFLQHNKCECRPKKD
18 | no binding | no binding | no binding | 44-9 (ligand) AHYNTEILKFMDVYQRSYCHPREVCIDVGKEFGVATNTFFKPSCVPLMRCGGCCNDEGLECVPTEESNITMQIMRITVPLSQGPKPVTISFLQHNKCECRPKKD
19 | no binding | no binding | no binding | 42-6 (ligand) AHYNTEILKFMDVYQRSYCHPREVCIDVGKEFGVATNTFFKPPCVSVYRCGGCCNDEGLECMNTSTSYLSKTLFEIKPHQGQHIGEMSFANHTSCRCMSKLD
20 | no binding | no binding | no binding | 42-8 (ligand) AHYNTEILKFMDVYQRSYCHPREVCIDVGKEFGVATNTFFKPPCVSVYRCGGCCNSEGLQCMNTSTSYLSKTLFEIKPHQGQHIGEMSFANHTSCRCMSKLD
21 | no binding | no binding | no binding | 44-8 (ligand) AHYNTEILKFMDVYQRSYCHPREVCIDVGKEFGVATNTFFKPSCVPLMRCGGCCNSEGLQCMNTSTSYLSKTLFEIKPHQGQHIGEMSFANHTSCRCMSKLD
22 | no binding | no binding | no binding | 41-14 (ligand) AHYNTEILKFMDVYQRSYCHPREVCIDVGKEYPDEIEYIFKPSCVPLMRCGGCCNDEGLECMNTSTSYLSKTLFEITVPLSQGPKPVTISFANHTSCRCMSKLD
23 | no binding | no binding | no binding | 43-14 (ligand) AHYNTEILKFMDVYQRSYCHPREVCIDVGKEYPDEIEYIFKPPCVSVYRCGGCCNDEGLECMNTSTSYLSKTLFEITVPLSQGPKPVTISFANHTSCRCMSKLD
24 | no binding | no binding | no binding | 43-16 (ligand) AHYNTEILKFMDVYQRSYCHPREVCIDVGKEYPDEIEYIFKPPCVSVYRCGGCCNSEGLQCMNTSTSYLSKTLFEITVPLSQGPKPVTISFANHTSCRCMSKLD
25 | no binding | no binding | no binding | 41-16 (ligand) AHYNTEILKFMDVYQRSYCHPREVCIDVGKEYPDEIEYIFKPSCVPLMRCGGCCNSEGLQCMNTSTSYLSKTLFEITVPLSQGPKPVTISFANHTSCRCMSKLD
